Measured values: publication PMC3500661 (Biochemistry, 2012)

Target: the molecule itself
Experiment: NMR solution structure

B1: Mycobacterium tuberculosis NmtR (apo-state, homodimer) (natural protein)
chain: GHGVEGRNRPSAPLDSQAAAQVASTLQALATPSRLMILTQLRNGPLPVTDLAEAIGMEQSAVSHQLRVLRNLGLVVGDRAGRSIVYSLYDTHVAQLLDEAIYHSEHLHLGLSDRHPSAG
binding result: binds
